According to the supplement of paper PMC7125110:
± gives the standard error. Fewer inactive variants are shown than the library holds.

B1: glmS ribozyme (parent)
chain: AUAAAAGCGCCAGAACUACAGAAAUGUAGUUGACGAGGAGGAGGUUUAUCGAAUUUUCGGCGGAUGCCUCCAAA

Variants of: B1
Assay: self-cleavage kobs at 640 uM GlcN6P; higher = faster cleavage; RNA array
Details: with glucosamine-6-phosphate
In short: (§1)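 A hybridised Cy3 probe tracked barcoded ribozyme variants, transcribed in situ by E. coli RNA polymerase on sequenced MiSeq chips, at 37 °C. The variants received 40 μM to 10 mM glucosamine-6-phosphate in HEPES/KCl/Mg(OAc)2 buffer. kobs came from decay fits and kcat and KM from weighted Michaelis–Menten fits.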

Going from G37A A64U C71U to A42G A53U C67G, the “self-cleavage kobs at 640 uM GlcN6P” value rises from less than 1e-05 s⁻¹ to 0.00199 ± 0.00049 s⁻¹.

Going from C16U C67G C70U to G38U C50G G62U, the “self-cleavage kobs at 640 uM GlcN6P” value rises from 5.74e-05 ± 2e-05 s⁻¹ to 0.000714 ± 0.00023 s⁻¹ (12-fold).

Going from G43A A48G U56A C68G to A6U U55G G59C U69C, the “self-cleavage kobs at 640 uM GlcN6P” value rises from less than 1e-05 s⁻¹ to 0.000135 ± 5.3e-05 s⁻¹.

A33U C34G and U31C A42C A64G C67G cannot be ordered by “self-cleavage kobs at 640 uM GlcN6P” value: less than 1e-05 s⁻¹ for the first, less than 1e-05 s⁻¹ for the second.

G9A A14U and G29C U31C G35U cannot be ordered by “self-cleavage kobs at 640 uM GlcN6P” value: less than 1e-05 s⁻¹ for the first, less than 1e-05 s⁻¹ for the second.

C8G C11U A36U and A48G U49C G66A cannot be ordered by “self-cleavage kobs at 640 uM GlcN6P” value: less than 1e-05 s⁻¹ for the first, less than 1e-05 s⁻¹ for the second.

G9A G13A A48G and A14G U45G C58U G62A cannot be ordered by “self-cleavage kobs at 640 uM GlcN6P” value: less than 1e-05 s⁻¹ for the first, less than 1e-05 s⁻¹ for the second.

Going from C10A C16U C68A to A42U G43A G51A C68U, the “self-cleavage kobs at 640 uM GlcN6P” value falls from 0.000489 ± 0.00017 s⁻¹ to less than 1e-05 s⁻¹.

Compared with G13C G43A U49G A52G, U46A C70G is higher in “self-cleavage kobs at 640 uM GlcN6P” value: less than 1e-05 s⁻¹ for the first, 0.000146 ± 4.1e-05 s⁻¹ for the second.

First: U31A G66U C70U
Second: G41U A42U C61A
The “self-cleavage kobs at 640 uM GlcN6P” value of the first is higher: 0.00031 ± 6.9e-05 s⁻¹ for the first, less than 1e-05 s⁻¹ for the second.

G7U C58G and A15G G35C A53U cannot be ordered by “self-cleavage kobs at 640 uM GlcN6P” value: less than 1e-05 s⁻¹ for the first, less than 1e-05 s⁻¹ for the second.

Going from A6C C8G U54C to G26U G32U, the “self-cleavage kobs at 640 uM GlcN6P” value rises from less than 1e-05 s⁻¹ to 0.000131 ± 4.5e-05 s⁻¹.

For C8A A15G A36C, the “self-cleavage kobs at 640 uM GlcN6P” value was less than 1e-05 s⁻¹.

Variants of: B1
Assay: self-cleavage kobs at 2500 uM GlcN6P; higher = faster cleavage; RNA array
Details: with glucosamine-6-phosphate
In short: as §1

G37A A64U C71U and G37A U45A A52U G60A cannot be ordered by “self-cleavage kobs at 2500 uM GlcN6P” value: less than 1e-05 s⁻¹ for the first, less than 1e-05 s⁻¹ for the second.

C34G U46A U47A U65C C68G and A12C A36C C71A cannot be ordered by “self-cleavage kobs at 2500 uM GlcN6P” value: less than 1e-05 s⁻¹ for the first, less than 1e-05 s⁻¹ for the second.

C10G A42U G62C and C58G G59C C61A G62A C71A cannot be ordered by “self-cleavage kobs at 2500 uM GlcN6P” value: less than 1e-05 s⁻¹ for the first, less than 1e-05 s⁻¹ for the second.

Compared with A14U U31A U69A, C16U C67G C70U is 3.2-fold lower in “self-cleavage kobs at 2500 uM GlcN6P” value: 0.000236 ± 5.6e-05 s⁻¹ for the first, 7.27e-05 ± 2e-05 s⁻¹ for the second.

Going from G38U C50G G62U to A14G G29A A36U, the “self-cleavage kobs at 2500 uM GlcN6P” value falls from 6.98e-05 ± 2e-05 s⁻¹ to less than 1e-05 s⁻¹.

G43U G44U G60A A64G C67A C71G and A15U G41A C50G C71U cannot be ordered by “self-cleavage kobs at 2500 uM GlcN6P” value: less than 1e-05 s⁻¹ for the first, less than 1e-05 s⁻¹ for the second.

First: C11U G63A U65C
Second: G13A A15C C50G C70A
The “self-cleavage kobs at 2500 uM GlcN6P” value of the first is lower: less than 1e-05 s⁻¹ for the first, 0.000129 ± 2.5e-05 s⁻¹ for the second.

Going from A6U U55G G59C U69C to C16A G41A A42U, the “self-cleavage kobs at 2500 uM GlcN6P” value falls from 5.57e-05 ± 2.7e-05 s⁻¹ to less than 1e-05 s⁻¹.

A33U C34G and A6C C11U C68U cannot be ordered by “self-cleavage kobs at 2500 uM GlcN6P” value: less than 1e-05 s⁻¹ for the first, less than 1e-05 s⁻¹ for the second.

Going from G21A A48C to G9A A14U, the “self-cleavage kobs at 2500 uM GlcN6P” value falls from 0.000242 ± 7.9e-05 s⁻¹ to less than 1e-05 s⁻¹.

Compared with U31G G41A U54C, G29C U31C G35U is lower in “self-cleavage kobs at 2500 uM GlcN6P” value: 6.89e-05 ± 2.6e-05 s⁻¹ for the first, less than 1e-05 s⁻¹ for the second.

A33U G35C C67G and G38A G41A C50G C61U cannot be ordered by “self-cleavage kobs at 2500 uM GlcN6P” value: less than 1e-05 s⁻¹ for the first, less than 1e-05 s⁻¹ for the second.

G9C A12C A42C and A15U U30C U31C G40U A64U G66A cannot be ordered by “self-cleavage kobs at 2500 uM GlcN6P” value: less than 1e-05 s⁻¹ for the first, less than 1e-05 s⁻¹ for the second.

C8G C11U A36U and G7U C16A U30C A52U G60U C71G cannot be ordered by “self-cleavage kobs at 2500 uM GlcN6P” value: less than 1e-05 s⁻¹ for the first, less than 1e-05 s⁻¹ for the second.

First: U31G A39G U57A A64G
Second: G26U U54C G59U U69G
The “self-cleavage kobs at 2500 uM GlcN6P” value of the first is higher: 5.58e-05 ± 2e-05 s⁻¹ for the first, less than 1e-05 s⁻¹ for the second.

First: U47G C58A C68A
Second: G41A U47C G51C
The “self-cleavage kobs at 2500 uM GlcN6P” value of the first is higher: 0.000116 ± 2.9e-05 s⁻¹ for the first, less than 1e-05 s⁻¹ for the second.

G32A C68G C70G and A15U G29U C61U cannot be ordered by “self-cleavage kobs at 2500 uM GlcN6P” value: less than 1e-05 s⁻¹ for the first, less than 1e-05 s⁻¹ for the second.

G9A G13A A48G and A14G U45G C58U G62A cannot be ordered by “self-cleavage kobs at 2500 uM GlcN6P” value: less than 1e-05 s⁻¹ for the first, less than 1e-05 s⁻¹ for the second.

G13U G35A C67A and G7A A53U G59A C70U cannot be ordered by “self-cleavage kobs at 2500 uM GlcN6P” value: less than 1e-05 s⁻¹ for the first, less than 1e-05 s⁻¹ for the second.

C11A A42U G43A and C10U A36U G41U A42G U54G G59C cannot be ordered by “self-cleavage kobs at 2500 uM GlcN6P” value: less than 1e-05 s⁻¹ for the first, less than 1e-05 s⁻¹ for the second.

C10G G32C A53C G63U A64G and G13C G43A U49G A52G cannot be ordered by “self-cleavage kobs at 2500 uM GlcN6P” value: less than 1e-05 s⁻¹ for the first, less than 1e-05 s⁻¹ for the second.

G32A G38U A53C U55C G60C C71U and C16G A36U A48G C58A cannot be ordered by “self-cleavage kobs at 2500 uM GlcN6P” value: less than 1e-05 s⁻¹ for the first, less than 1e-05 s⁻¹ for the second.

First: U46A C70G
Second: G9A A14G U56G
The “self-cleavage kobs at 2500 uM GlcN6P” value of the first is 6.4-fold higher: 0.00037 ± 0.00011 s⁻¹ for the first, 5.76e-05 ± 2.3e-05 s⁻¹ for the second.

Going from U31A G66U C70U to G41U A42U C61A, the “self-cleavage kobs at 2500 uM GlcN6P” value falls from 0.000329 ± 6.7e-05 s⁻¹ to less than 1e-05 s⁻¹.

Compared with C10A C11A G38C G41A, A39U A48G C71U is higher in “self-cleavage kobs at 2500 uM GlcN6P” value: less than 1e-05 s⁻¹ for the first, 4.36e-05 ± 1.5e-05 s⁻¹ for the second.

A6U C11U C34G G40A A52G G60A C71A and A15C G37U A39C G41A G63U G66C cannot be ordered by “self-cleavage kobs at 2500 uM GlcN6P” value: less than 1e-05 s⁻¹ for the first, less than 1e-05 s⁻¹ for the second.

C8U A36C G51U C68A and A15G G35C A53U cannot be ordered by “self-cleavage kobs at 2500 uM GlcN6P” value: less than 1e-05 s⁻¹ for the first, less than 1e-05 s⁻¹ for the second.

Going from A6C C10G A36G to G26U G32U, the “self-cleavage kobs at 2500 uM GlcN6P” value rises from less than 1e-05 s⁻¹ to 0.000943 ± 0.00021 s⁻¹.

First: A39G A48C C71G
Second: A6G A33G U54A U56C
The “self-cleavage kobs at 2500 uM GlcN6P” value of the first is higher: 4.19e-05 ± 1.9e-05 s⁻¹ for the first, less than 1e-05 s⁻¹ for the second.

A12C A15C A39G A64G C70U and G29C A39C A48U U49C U57A G60A C61A C67A cannot be ordered by “self-cleavage kobs at 2500 uM GlcN6P” value: less than 1e-05 s⁻¹ for the first, less than 1e-05 s⁻¹ for the second.

C11G A42C G43A C70U and U46G G51U G59A cannot be ordered by “self-cleavage kobs at 2500 uM GlcN6P” value: less than 1e-05 s⁻¹ for the first, less than 1e-05 s⁻¹ for the second.

A6C A15U G43U U54G and C16U C34A G59C U69A cannot be ordered by “self-cleavage kobs at 2500 uM GlcN6P” value: less than 1e-05 s⁻¹ for the first, less than 1e-05 s⁻¹ for the second.

Variants of: B1
Assay: self-cleavage kobs at 10000 uM GlcN6P; higher = faster cleavage; RNA array
Details: with glucosamine-6-phosphate
In short: as §1

First: C34G U46A U47A U65C C68G
Second: A42G A53U C67G
The “self-cleavage kobs at 10000 uM GlcN6P” value of the first is lower: less than 1e-05 s⁻¹ for the first, 0.00458 ± 0.0017 s⁻¹ for the second.

Compared with A33U C34G, U46A C70G is higher in “self-cleavage kobs at 10000 uM GlcN6P” value: less than 1e-05 s⁻¹ for the first, 0.000156 ± 3.1e-05 s⁻¹ for the second.

C8U A36C G51U C68A and A15G G35C A53U cannot be ordered by “self-cleavage kobs at 10000 uM GlcN6P” value: less than 1e-05 s⁻¹ for the first, less than 1e-05 s⁻¹ for the second.
